Test results: patent US20030049644

Molecular target: Hepatocyte growth factor/scatter factor (HGF) (UniProt P14210+P14210)
Test: FP
Details: 2'-F pyrimidines

Hepatocyte growth factor/scatter factor (HGF), sequence (P14210 32-494, chain 1 of 2): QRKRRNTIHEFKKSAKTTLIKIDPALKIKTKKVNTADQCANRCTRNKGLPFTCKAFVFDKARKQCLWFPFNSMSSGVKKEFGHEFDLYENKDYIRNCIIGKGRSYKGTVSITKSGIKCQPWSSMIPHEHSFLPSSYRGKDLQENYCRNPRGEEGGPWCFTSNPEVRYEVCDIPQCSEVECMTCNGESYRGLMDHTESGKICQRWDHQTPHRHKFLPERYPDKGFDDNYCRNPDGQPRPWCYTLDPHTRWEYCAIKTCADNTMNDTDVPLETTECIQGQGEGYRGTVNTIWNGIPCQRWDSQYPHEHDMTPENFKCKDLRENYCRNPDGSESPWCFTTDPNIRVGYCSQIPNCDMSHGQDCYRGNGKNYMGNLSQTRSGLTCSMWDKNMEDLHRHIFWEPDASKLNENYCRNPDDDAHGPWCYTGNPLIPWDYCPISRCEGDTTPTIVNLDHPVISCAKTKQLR
Hepatocyte growth factor/scatter factor (HGF), sequence (P14210 495-728, chain 2 of 2): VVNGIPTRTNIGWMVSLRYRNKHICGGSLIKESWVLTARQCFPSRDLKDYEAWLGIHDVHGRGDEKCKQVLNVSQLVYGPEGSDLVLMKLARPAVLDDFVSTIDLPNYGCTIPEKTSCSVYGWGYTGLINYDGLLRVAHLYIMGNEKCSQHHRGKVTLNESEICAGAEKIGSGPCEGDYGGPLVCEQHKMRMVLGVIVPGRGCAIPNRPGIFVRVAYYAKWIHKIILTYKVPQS

## GAGAGNUCCUAUUUAUGACAUCCCAUGCCCCCA [Tr65]
  Kd: 1.4 nM
